# Measurements as given in patent publication US20240026331.
# Positions count from the first letter of the chain named. Names and notes keep the numbering of the source.
# B1: unactivated neprosin polypeptide prepared from cells expressing mSP-His-Npr1 (SEQ ID NO: 40) (protein)
# chain: HHHHHHRSIQARLANKPKGTIKTIKGDDGEVVDCVDIYKQPAFDHPLLKNHTLQMQPSSYASKVGEYNKLEQPWHKNGECPKGSIPIRRQVITGLPVVKKQFPNLKFAPPSANTNHQYAVIAYFYGNASLQGANATINIWEPNLKNPNGDFSLTQIWISAGSGSSLNTIEAGWQVYPGRTGDSQPRFFIYWTADGYTSTGCYDLTCPGFVQTNNYYAIGMALQPSVYGGQQYELNESIQRDPATGNWWLYLWGTVVGYWPASIYNSITNGADTVEWGGEIYDSSGTGGFHTTTQMGSGHFPTEGYGKASYVRDLQCVDTYGNVISPTANSFQGIAPAPNCYNYQFQQGSSELYLFYGGPGCQ
# B2: activated (mature, proteolytically active) neprosin Npr1 prepared by acid treatment (100 mM glycine, pH 2.5) of Npr1 purified from cells expressing … (protein)
# chain: SANTNHQYAVIAYFYGNASLQGANATINIWEPNLKNPNGDFSLTQIWISAGSGSSLNTIEAGWQVYPGRTGDSQPRFFIYWTADGYTSTGCYDLTCPGFVQTNNYYAIGMALQPSVYGGQQYELNESIQRDPATGNWWLYLWGTVVGYWPASIYNSITNGADTVEWGGEIYDSSGTGGFHTTTQMGSGHFPTEGYGKASYVRDLQCVDTYGNVISPTANSFQGIAPAPNCYNYQFQQGSSELYLFYGGPGCQ
# B3: activated WT Npr1 prepared from Npr1 expressed in Pichia cells (pJAG-s1-His-Npr1) (protein)
# chain: B2 chain
# B4: activated N216A/N324A Npr1 prepared from pJAG-s1-His-N216A, N324A Npr1 expressed in Pichia cells (SEQ ID NO: 66) (protein)
# chain: B2 chain with N17A, N125A
# B5: activated N216A Npr1 prepared from pJAG-s1-His-N216A Npr1 expressed in Pichia cells (SEQ ID NO: 60) (protein)
# chain: B2 chain with N17A
# Target: gliadin substrate
Protein,"proteolytic activity on gliadin substrate (percent of gliadin remaining, RIDASCREEN Gliadin competitive ELISA; pH 4, 37 C, 5 or 30 min)","gliadin digestion in buffered SGF (pH 3, 0.8 mg/mL pepsin), RIDASCREEN Gliadin competitive ELISA, 0-60 min","proteolytic activity on gliadin substrate inside a mouse stomach (enzyme-to-substrate ratio 1:1000 or 1:10,000, 15 min; RIDASCREEN Gliadin competitive ELISA)","gliadin digestion in buffered SGF (pH 3, 0.8 mg/mL pepsin), RIDASCREEN Gliadin competitive ELISA"
B1,Neprosin preparation activated by treatment at acidic pH displays significantly greater proteolytic activity compared to unactivated neprosin polypeptide prepared from cells expressing mSP-His-Npr1,–,–,–
B2,Neprosin preparation activated by treatment at acidic pH displays significantly greater proteolytic activity compared to unactivated neprosin polypeptide prepared from cells expressing mSP-His-Npr1,shows equivalent gliadin digestion activity when compared to the enzyme prepared from mammalian CHO cells,dose-dependent proteolytic activity of activated WT Npr1 prepared from Npr1 expressed in CHO cells on gliadin substrate inside a mouse stomach,–
B3,–,The activated neprosin protease from Pichia is proteolytically active on gliadin substrate in SGF and shows equivalent gliadin digestion activity when compared to the enzyme prepared from mammalian CHO cells,–,–
B4,–,–,–,Both N216A Npr1 and N216A/N324A Npr1 digested gliadin in a similar manner as WT Npr1 produced in Pichia
B5,–,–,–,Both N216A Npr1 and N216A/N324A Npr1 digested gliadin in a similar manner as WT Npr1 produced in Pichia
